Test results as given in the supplement of paper PMC9170038.

Tested on: MS2 coat protein
Assay: apparent KD of MS2 coat protein; designed switch direction (-1 OFF switch, 1 ON switch): 1; higher = weaker reporter binding
Method in brief: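 Stalled E. coli RNA polymerase transcribed designed RNA switches on Illumina chips, which were then titrated with SNAP-549-labelled MS2 coat protein, doubling from 0.7 or 1.5 nM to 3 µM. Steps lasted from 0.8–1.5 h at the lowest concentration to 10–20 min at the highest. The apparent KD is each design's median over clusters of curve-fitted normalised fluorescence.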

[1] = input ligand: microRNA oligo, concentration not stated
[2] = Eterna round: R95, input ligand: FMN 200 uM
[3] = Eterna round: R95, input ligand: microRNA oligo, concentration not stated
[4] = Eterna round: R95, input ligand: none

| Sequence | apparent KD of MS2 coat protein [1] | apparent KD of MS2 coat protein (input ligand: FMN 200 uM) | apparent KD of MS2 coat protein (input ligand: none) | apparent KD of MS2 coat protein [2] | apparent KD of MS2 coat protein [3] | apparent KD of MS2 coat protein [4] |
| --- | --- | --- | --- | --- | --- | --- |
| AACAAUCUAUCUGAGGAUAUCAUGAAAUAAACAUGAGGAUCACCCAUGUGCAGGAAAUCUGCAUAUGAGAAGGCAGAUAGAUUGA [salish99_ss2_r3_043] (Eterna round: R96, puzzle: Same State 2) | 672 nM | – | – | – | – | – |
| UUAUCUCUUACAUGAGGAUCACCCAUGUUUUUAUGUCUUAGACAGGAUAUAGUAGUCUCGUUUUACUAGAAGGGUCUUUUUAUU [JR_SSNG3_Sub019] (Eterna round: R96, puzzle: Same State NG 3) | 39.8 nM | 28.9 nM | 51.4 nM | – | – | – |
| AAGAAAGACGCAGGAUAUCAGUGCAAACCGCACUGAGAAGGGUGAGACAUGAGGAUCACCCAUGUAACACGGCAAAACACCGUG [Teinre] (Eterna round: R96, puzzle: Same State NG 1) | 49.3 nM | 1240 nM | 191 nM | – | – | – |
| GCUCGUAUCACAACCGACAUGAGGAUCACCCAUGUAUGUUGGUAGGAUAUCUAUAUUAAGGAUAUAGAGAAGGGCCGAACGAGC [SameState NG3 #13] (Eterna round: R96, puzzle: Same State NG 3) | 10.4 nM | 14.6 nM | 18.7 nM | – | – | – |
| CGGGUACAUGAGGAUCACCCAUGUUGGAGUAAUGCAGGAUAUGUGAGACGAGAAGAUAAAACAGAAGGGCAAGGAG [JR_SS!_Sub009] (puzzle: Same State 1) | – | – | – | 37.4 nM | 95 nM | 77.6 nM |
| AGCGAACAGUCCUCAAAGGCAACAUGAGGAUCACCCAUGUCAUAGGAUAUGCUAAAAGCUCAGUAGCAGAAGGAUGGAGGACUG [Edatusbe] (Eterna round: R96, puzzle: Same State NG 3) | 28.1 nM | 19.5 nM | 23.5 nM | – | – | – |
| UUACUCAUGUAAGGAUAUGCAGCCGUUUCGGCUGCAGAAGGUACUAUAAUACAUGAGGAUCACCCAUGUCUCUAUUAUUUAGUG [salish99_SSNG1_r04_922] (Eterna round: R96, puzzle: Same State NG 1) | 39.9 nM | – | – | – | – | – |
| UUUAGUUGCGGGCAGGAUAUGUAUUAAAAUACAUGAGGAUCACCCAUGUGAGGUCAUAAAGACCUACAGAAGGGCCAAUCGCGAC [Laonerce - 16] (puzzle: Same State 2) | – | – | – | 16.5 nM | 64.8 nM | 66.2 nM |
| GGGUAGGAGCUACAGGAUAUAUAGAAGUUGACAUGAGGAUCACCCAUGUAAGGGUACGGAGGCGGAUAGAAGGGUAUGGGAGGUG [JR_SS2_Sub033] (puzzle: Same State 2) | – | – | – | 55.5 nM | 54.2 nM | 64.9 nM |
| AGUCCAGCCUGAGCUGGACAAAAGCAUGUACAUGAGGAUCACCCAUGUUCAUGUACAAGCUUUUUGCUCGUCUUGCG [salish99_208a_r3_106x] (puzzle: Sensor for hsa-mir-208a) | – | – | – | 641 nM | 17.3 nM | 867 nM |
| UUAUUAUUUACAUGAGGAUCACCCAUGUUUUUAUGUCAGAGAUAGGAUAUAGUUUUCUCGUUUUUCUAGAAGGAUCUUUUUAUU [JR_SSNG3_Sub085] (Eterna round: R96, puzzle: Same State NG 3) | 17 nM | 18.6 nM | 22.8 nM | – | – | – |
| GGAGGAUGAGCGUAGGAUAUAGGAGGAGUGACAUGAGGAUCACCCAUGUAGUAGGAGGGAAAGGGCUAGAAGGACGAGGAAGAGG [JR_SS2_Sub071] (puzzle: Same State 2) | – | – | – | 56.1 nM | 51.2 nM | 70.2 nM |
| GCCGCGUUUCGCGCCUACAUGAGGAUCACCCAUGUUUGUAGGCAGGAUAUCGUCCGCUCUGCGGGCGAGAAGGGCUGUUGUGGC [salish99_SSNG3_R04_022] (Eterna round: R96, puzzle: Same State NG 3) | 36.7 nM | 41.2 nM | 51.5 nM | – | – | – |
| AAAGAAAACGCAGGAUAUCCCGGAAUGGAACCGGGAGAAGGGUGACCGGUACAUGAGGAUCACCCAUGUAGAGCAAAGGCUCAA [Oninqu] (Eterna round: R96, puzzle: Same State NG 1) | 114 nM | 78 nM | 124 nM | – | – | – |
| GGGUAGGAAUUACAGGAUAUAUAGAAGUUGACAUGAGGAUCACCCAUGUAUGGGUUGGGAGGAGGAUAGAAGGGUAUGAGAGGUG [JR_SS2_Sub032] (puzzle: Same State 2) | – | – | – | 125 nM | 123 nM | 113 nM |
| UGGUACAUGGGAGGAUAUCAUGCAAACAUGAGGAUCACCCAUGUAGCCAUGGAGACAUGGGUAUAUGAGAAGGCCCAUGUACCU [JL SSNG1 3.52] (Eterna round: R96, puzzle: Same State NG 2) | 51.9 nM | 317 nM | 88.3 nM | – | – | – |
| GCUACAUGAGGAUCACCCAUGUGUGCGUGGGAGUGAGUGGCUUAGGAUAUCUAUGAUUUUAGUUGAGAGAAGGAGGAUUGCUGU [SS-NG3-LRO10] (Eterna round: R96, puzzle: Same State NG 3) | 140 nM | 193 nM | 175 nM | – | – | – |
| GGAGCCGGUACUGAGGAUAUUUAUAUUAAAACAUGAGGAUCACCCAUGUAGGCCAGAAGGCCUUGGGAGAAGGCAGAUCGGCUCC [Biseusra - 5] (puzzle: Same State 2) | – | – | – | 15.1 nM | 46.2 nM | 72.8 nM |
| AGUCCAGCAAGAGCUGGACAAAAGCAUGUACAUGAGGAUCACCCAUGUUCAUGUACAAGCUUUUUGCUCGUCUUAAA [Mat - hsa-mir-208a - Mod of JL - 57] (puzzle: Sensor for hsa-mir-208a) | – | – | – | 413 nM | 16.5 nM | 659 nM |
| AACAAUCUAUCUGAGGAUAUCAUGAAAUAAACAUGAGGAUCACCCAUGUGCAGGAAAACUGUAUAUGAGAAGGCAGAUAGAUUGA [salish99_ss2_r3_046] (puzzle: Same State 2) | – | – | – | 14.8 nM | 69.2 nM | 101 nM |
| CGGCGCUGUCGAGAGGAUAUGCGGUGACGGACAUGAGGAUCACCCAUGUUAGCGAUAGCGUUACGGUAGAAGGCUCUACAGUCGC [Soteed Omei mod 10] (Eterna round: R96, puzzle: Same State 2) | 125 nM | 19.1 nM | 217 nM | – | – | – |
| GGUGCCAAUAAAGCCUACAUGAGGAUCACCCAUGUAUGUAGGUAGGAUAUCGUUUGCAAAGCAAACGAGAAGGGCCUAGGCACC [Mat - Same State NG 3 - JL Mod - D58] (Eterna round: R96, puzzle: Same State NG 3) | 43.7 nM | 27 nM | 53.1 nM | – | – | – |
| AAAGUACAUGAGGAUCACCCAUGUCCAAACAAGUAAGGAUAUACGAAAACAAAACAAAAUGUAGAAGGUACAACAA [Same State 1 #2] (puzzle: Same State 1) | – | – | – | 18.1 nM | 17.9 nM | 26.4 nM |
| AGGAAGGAGACUGAGGAUAUCGUUGAAAGGACAUGAGGAUCACCCAUGUGUAUAGGAUUGGAGAACGAGAAGGCAGAGGAGUGGA [JR_SS2_Sub045] (puzzle: Same State 2) | – | – | – | 36.4 nM | 46.6 nM | 71.2 nM |
| UUACUCAUGUAAGGAUAUGCAGCCGUUUCGGCUGCAGAAGGUACUAUAAUACAUGAGGAUCACCCAUGUCUUUUUAAUUUAGAC [JL SSNG1 1.29] (Eterna round: R96, puzzle: Same State NG 1) | 30.7 nM | 56.2 nM | 47.8 nM | – | – | – |
| GAGGGACAGACCAACAUGAGGAUCACCCAUGUCCUCGCAGGUCAGGAUAUCCGUCCAACAGGCAAGGAGAAGGGACGGUGAACC (Eterna round: R96, puzzle: Same State NG 3) | 1200 nM | 522 nM | 724 nM | – | – | – |
| GGUAGGUUACUACCAAACAUGAGGAUCACCCAUGUAAGUGGGAAGGAUAUGGUACCUAAAAGGUACCAGAAGGUCCAUAUAGUU [Mat - Same State NG 3 - JL Mod - D99] (Eterna round: R96, puzzle: Same State NG 3) | 228 nM | 202 nM | 711 nM | – | – | – |
| AAGUAACAUGAGGAUCACCCAUGUGAGGUGAGCGUAGGAUAUCGAGGAGGUAGGGUAGGUCGAGAAGGACGAGAAG [JR_SS1_Sub095] (puzzle: Same State 1) | – | – | – | 323 nM | 210 nM | 700 nM |
